Patent US20190031764A1 (published 2019)

target: human PD1 antigen (human, UniProt Q15116 25-167); test: SPR
Sequence (Q15116 25-167): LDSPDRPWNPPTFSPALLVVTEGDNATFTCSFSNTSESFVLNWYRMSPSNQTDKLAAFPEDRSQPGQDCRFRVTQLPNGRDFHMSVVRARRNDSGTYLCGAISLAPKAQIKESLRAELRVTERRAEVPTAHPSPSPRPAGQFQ

Row | Kd | Binder
1 | 1.38 nM | S75D variant of PD1B244 (antibody, V domains shown) VH: QVQLVQSGAEVKKPGSSVKVSCKASGGTFSSYAISWVRQAPGQGLEWMGGIIPIFDTANYAQKFQGRVTITADEDTSTAYMELSSLRSEDTAVYYCARPGLAAAYDTGSLDYWGQGTLVTVSS VL: EIVLTQSPATLSLSPGERATLSCRASQSVRSYLAWYQQKPGQAPRLLIYDASNRATGIPARFSGSGSGTDFTLTISSLEPEDFAVYYCQQRNYWPLTFGQGTKVEIK
2 | 1.51 nM | S84D variant of PD1B244 (antibody, V domains shown) VH: QVQLVQSGAEVKKPGSSVKVSCKASGGTFSSYAISWVRQAPGQGLEWMGGIIPIFDTANYAQKFQGRVTITADESTSTAYMELDSLRSEDTAVYYCARPGLAAAYDTGSLDYWGQGTLVTVSS VL: EIVLTQSPATLSLSPGERATLSCRASQSVRSYLAWYQQKPGQAPRLLIYDASNRATGIPARFSGSGSGTDFTLTISSLEPEDFAVYYCQQRNYWPLTFGQGTKVEIK
3 | 1.36 nM | S88D variant of PD1B244 (antibody, V domains shown) VH: QVQLVQSGAEVKKPGSSVKVSCKASGGTFSSYAISWVRQAPGQGLEWMGGIIPIFDTANYAQKFQGRVTITADESTSTAYMELSSLRDEDTAVYYCARPGLAAAYDTGSLDYWGQGTLVTVSS VL: EIVLTQSPATLSLSPGERATLSCRASQSVRSYLAWYQQKPGQAPRLLIYDASNRATGIPARFSGSGSGTDFTLTISSLEPEDFAVYYCQQRNYWPLTFGQGTKVEIK
